Results: paper PMC4900146 (Biochemistry, 2016)

Target: calmodulin (full-length wild-type CaM) (human, UniProt P0DP23 1-149)
Test: circular dichroism

B1: pCaN, peptide encompassing the CaM-binding domain of calcineurin A (residues 391-414) (peptide)
peptide: not shown
binding result: binds
